According to patent US7335638B2, “Prevention and treatment of mycoplasma-associated diseases” (priority 2000, dated 2008):

System: adenocarcinoma of Walker
Assay: Treatment of experimental adenocarcinoma in rats (Walker tumor)
Type: in vivo, rat
Conditions: both died after 12 days of treatment; prolactine added to TS, PDTC and plant extract
Excerpt: Malignant neoplasia was induced experimentally by inoculation of 500,000 cells of adenocarcinoma of Walker in the right flank of several rats in order to verify if the use of simultaneous anti-proliferative and anti-oxidative drugs may decrease the growing of the neoplasia and the level of metastases. Usually the animals receiving such inoculation of adecarcinoma cells survived for 10-12 days and presented metastasis to many ganglia, liver and lung. Nine of these animals were inoculated after 7 days of tumor cells with 0.5 ml of trans-sialidase TS (supernatant of culture of T. cruzi) as described in the U.S. patent application Ser. No. 10/086,913, filed Mar. 1, 2002 and with 0.75 mg of PDTC, into the peritoneum every day. The particles containing DNA or RNA prepared from plant extracts (garlic, Ginkgo biloba and tomato) as described above was also administered. All animals received 0.5 ml of garlic extract by subcutaneous route (Table 1 below). The tumors were similar in size for all animals at the beginning of the treatment, i.e. 2.8×2.7 cm.
Rats 1-4 were followed until death. Rats 3 and 4 received 0.5 ml of Ginkgo biloba's extract, every day. The tumors increased slower in all 4 animals receiving plant extracts than the controls. […]
Prolactin and/or growth hormone administration to diminish these effects was also evaluated. […]

B1: prolactine: ovine prolactine from Sigma, neuroendocrine hormone (protein, UniProt P01240 31-229, looked up)
Prolactin: TPVCPNGPGNCQVSLRDLFDRAVMVSHYIHNLSSEMFNEFDKRYAQGKGFITMALNSCHTSSLPTPEDKEQAQQTHHEVLMSLILGLLRSWNDPLYHLVTEVRGMKGVPDAILSRAIEIEEENKRLLEGMEMIFGQVIPGAKETEPYPVWSGLPSLQTKDEDARHSAFYNLLHCLRRDSSKIDTYLKLLNCRIIYNNNC
Q: How did the “tumor at necropsy, Rat 4 compared with Rat 1” value turn out when B1 was run?
A: The value was “smaller size of the tumor with less microscopic necrosis”.
